# Test results as given in patent US20220323583A1, “Pharmaceutical Formulations of Bi-Specific Diabodies and Use of the Same” (MacroGenics, Inc., priority 2019, published 2022).
# B1: DART-A: sequence-optimized CD123×CD3 bispecific diabody; chains SEQ ID NO:42 and SEQ ID NO:44 covalently bonded by a disulfide bond (protein)
# chain 1: QAVVTQEPSLTVSPGGTVTLTCRSSTGAVTTSNYANWVQQKPGQAPRGLIGGTNKRAPWTPARFSGSLLGGKAALTITGAQAEDEADYYCALWYSNLWVFGGGTKLTVLGGGGSGGGGEVQLVQSGAELKKPGASVKVSCKASGYTFTDYYMKWVRQAPGQGLEWIGDIIPSNGATFYNQKFKGRVTITVDKSTSTAYMELSSLRSEDTAVYYCARSHLLRASWFAYWGQGTLVTVSSGGCGGGEVAALEKEVAALEKEVAALEKEVAALEK
# chain 2: DFVMTQSPDSLAVSLGERVTMSCKSSQSLLNSGNQKNYLTWYQQKPGQPPKLLIYWASTRESGVPDRFSGSGSGTDFTLTISSLQAEDVAVYYCQNDYSYPYTFGQGTKLEIKGGGSGGGGEVQLVESGGGLVQPGGSLRLSCAASGFTFSTYAMNWVRQAPGKGLEWVGRIRSKYNNYATYYADSVKDRFTISRDDSKNSLYLQMNSLKTEDTAVYYCVRHGNFGNSYVSWFAYWGQGTLVTVSSGGCGGGKVAALKEKVAALKEKVAALKEKVAALKE
# modifications: interchain disulfide bond; First Polypeptide Chain of DART-A; Second Polypeptide Chain of DART-A
# How the values were obtained:
# [1] = Sub-visible particle count, light obscuration (HIAC); assay type: physicochemical; details: for Subvisible Particles by USP <788> ≥2 μm/mL / Subvisible Particles by USP <788> ≥10 μm/mL / Subvisible Particles by USP <788> ≥25 μm/mL: Stabilizer 2; for Particle Counts/mL ≥10 μm / Particle Counts/mL ≥25 μm: Study 1, dual-pump infusion
# [2] = SE-HPLC (protein aggregation: % main peak, % HMW, % LMW); assay type: physicochemical; details: for FLR SE-HPLC % HMW / FLR SE-HPLC % LMW / FLR SE-HPLC % Main Peak: 0.1 mg/mL solution, Stabilizer 2
# Description: FLR SE-HPLC analysis was performed to measure protein purity, monomer purity and protein stability. The FLR SE-HPLC configuration included a fluorescence (FLR) detector (λX=280 nm, λE=340 nm), a mobile phase composition of 350 mM Mobile Phase (175 mMNaH2PO4, 175 mMNa2SO, pH 6.3) and a TosoBio TSK G3000SWXL size exclusion column. Samples were diluted to 0.1 mg/mL and stored at 5±3° C. for 24 to 96 hours prior to analysis. Eight μg of protein (or 100 μL is sample concentration was below 0.1 mg/mL) was injected for each 30-minute run. HMW and LMW species and monomer peaks were monitored.
# [3] = 10 ng/mL dosing solution, Post Infusion (Infusion Time = 48 Hrs)
# [4] = 10 ng/mL dosing solution, Post Storage (T = 72 Hrs), room temperature
# [5] = 10 ng/mL dosing solution, T = 0
# [6] = 20 ng/mL dosing solution, Post Infusion (Infusion Time = 96 Hrs)
# [7] = 20 ng/mL dosing solution, Post Storage (T =72 Hrs), room temperature
# [8] = 20 ng/mL dosing solution, T = 0
# [9] = 1250 ng/mL dosing solution, Post Infusion (Infusion Time = 48 Hrs)
# [10] = 1250 ng/mL dosing solution, Post Storage (T = 72 Hrs), room temperature
# [11] = 1250 ng/mL dosing solution, T = 0
# [12] = High (5000 ng/mL), T = 24 hours
# [13] = High (5000 ng/mL), T = 48 hours
# [14] = High (5000 ng/mL), T = 72 hours
# [15] = Post Infusion (Infusion Time = 96 Hrs)
# [16] = Post Storage (Time = 72 Hrs), room temperature
molecule,measurement,setting,value
B1,Subvisible Particles by USP <788> ≥2 μm/mL,[1]; [3],140 mL⁻¹
same,Subvisible Particles by USP <788> ≥10 μm/mL,[1]; [3],2 mL⁻¹
same,Subvisible Particles by USP <788> ≥25 μm/mL,[1]; [3],1 mL⁻¹
same,Subvisible Particles by USP <788> ≥2 μm/mL,[1]; [4],192 mL⁻¹
same,Subvisible Particles by USP <788> ≥10 μm/mL,[1]; [4],10 mL⁻¹
same,Subvisible Particles by USP <788> ≥25 μm/mL,[1]; [4],1 mL⁻¹
same,Subvisible Particles by USP <788> ≥2 μm/mL,[1]; [5],206 mL⁻¹
same,Subvisible Particles by USP <788> ≥10 μm/mL,[1]; [5],7 mL⁻¹
same,Subvisible Particles by USP <788> ≥25 μm/mL,[1]; [5],1 mL⁻¹
same,Subvisible Particles by USP <788> ≥2 μm/mL,[1]; [6],85 mL⁻¹
same,Subvisible Particles by USP <788> ≥10 μm/mL,[1]; [6],9 mL⁻¹
same,Subvisible Particles by USP <788> ≥25 μm/mL,[1]; [6],3 mL⁻¹
same,Subvisible Particles by USP <788> ≥2 μm/mL,[1]; [7],412 mL⁻¹
same,Subvisible Particles by USP <788> ≥10 μm/mL,[1]; [7],8 mL⁻¹
same,Subvisible Particles by USP <788> ≥25 μm/mL,[1]; [7],0 mL⁻¹
same,Subvisible Particles by USP <788> ≥2 μm/mL,[1]; [8],344 mL⁻¹
same,Subvisible Particles by USP <788> ≥10 μm/mL,[1]; [8],8 mL⁻¹
same,Subvisible Particles by USP <788> ≥25 μm/mL,[1]; [8],0 mL⁻¹
same,Subvisible Particles by USP <788> ≥2 μm/mL,[1]; [9],188 mL⁻¹
same,Subvisible Particles by USP <788> ≥10 μm/mL,[1]; [9],4 mL⁻¹
same,Subvisible Particles by USP <788> ≥25 μm/mL,[1]; [9],1 mL⁻¹
same,Subvisible Particles by USP <788> ≥2 μm/mL,[1]; [10],146 mL⁻¹
same,Subvisible Particles by USP <788> ≥10 μm/mL,[1]; [10],7 mL⁻¹
same,Subvisible Particles by USP <788> ≥25 μm/mL,[1]; [10],1 mL⁻¹
same,Subvisible Particles by USP <788> ≥2 μm/mL,[1]; [11],664 mL⁻¹
same,Subvisible Particles by USP <788> ≥10 μm/mL,[1]; [11],21 mL⁻¹
same,Subvisible Particles by USP <788> ≥25 μm/mL,[1]; [11],1 mL⁻¹
same,"subvisible particle counts ≥2 μm, ≥10 μm and ≥25 μm post-infusion vs T=0",[1]; Stabilizer 2 dosing solutions,did not increase
same,Particle Counts/mL ≥10 μm,"[1]; High (5000 ng/mL), T = 0",14 Counts/mL
same,Particle Counts/mL ≥25 μm,"[1]; High (5000 ng/mL), T = 0",1 Counts/mL
same,Particle Counts/mL ≥10 μm,[1]; [12],2 Counts/mL
same,Particle Counts/mL ≥25 μm,[1]; [12],1 Counts/mL
same,Particle Counts/mL ≥10 μm,[1]; [13],0 Counts/mL
same,Particle Counts/mL ≥25 μm,[1]; [13],0 Counts/mL
same,Particle Counts/mL ≥10 μm,[1]; [14],0 Counts/mL
same,Particle Counts/mL ≥25 μm,[1]; [14],0 Counts/mL
same,Particle Counts/mL ≥10 μm,"[1]; Low (100 ng/mL), T = 0",5 Counts/mL
same,Particle Counts/mL ≥25 μm,"[1]; Low (100 ng/mL), T = 0",0 Counts/mL
same,Particle Counts/mL ≥10 μm,"[1]; Low (100 ng/mL), T = 24 hours",4 Counts/mL
same,Particle Counts/mL ≥25 μm,"[1]; Low (100 ng/mL), T = 24 hours",1 Counts/mL
same,Particle Counts/mL ≥10 μm,"[1]; Low (100 ng/mL), T = 48 hours",7 Counts/mL
same,Particle Counts/mL ≥25 μm,"[1]; Low (100 ng/mL), T = 48 hours",0 Counts/mL
same,Particle Counts/mL ≥10 μm,"[1]; Low (100 ng/mL), T = 72 hours",1 Counts/mL
same,Particle Counts/mL ≥25 μm,"[1]; Low (100 ng/mL), T = 72 hours",0 Counts/mL
same,SE-HPLC species,"[2]; 0.1 mg/mL in Stabilizer 2 dosing solution, 72-hour RT storage and administration",no changes in the LMW and LMW
same,FLR SE-HPLC % HMW,[2]; [15],0.9%
same,FLR SE-HPLC % LMW,[2]; [15],0.9%
same,FLR SE-HPLC % Main Peak,[2]; [15],98.2%
same,FLR SE-HPLC % HMW,[2]; [16],0.8%
same,FLR SE-HPLC % LMW,[2]; [16],0.9%
same,FLR SE-HPLC % Main Peak,[2]; [16],98.4%
same,FLR SE-HPLC % HMW,[2]; T = 0 Hrs,0.8%
same,FLR SE-HPLC % LMW,[2]; T = 0 Hrs,0.9%
